Molecular target: the molecule itself
Assay: peptide or protein array; MyD88 TIR domain monomer spotted in quadruplicate on nitrocellulose-coated slides; biotinylated MyD88 (25 µg/ml) in 50 mM Hepes, 0.1% Tween, 3% human antibody serum, 2 h at room temperature; detected with streptavidin-Alexa Fluor 647; with or without pre-incubation with EM-163 (100 and 50 µg/ml) or DMSO

B1: recombinant MyD88 TIR domain (amino acids 157-296) (domain or fragment, human, UniProt Q99836 157-296, looked up)
chain: MPERFDAFICYCPSDIQFVQEMIRQLEQTNYRLKLCVSDRDVLPGTCVWSIASELIEKRCRRMVVVVSDDYLQSKECDFQTKFALSLSPGAHQKRLIPIKYKAMKKEFPSILRFITVCDYTNPCTKSWFWTRLAKALSLP
modifications: biotin (EZ Link Biotin BMCC kit) on the copy in solution; the copy spotted on the slide is not biotinylated
notes: also called MyD88 (157-296); TIR domain protein (monomer); not shown: His, N-terminal, cleaved; MBP, N-terminal, cleaved
Question: Does B1 bind?
Answer: binds

From paper PMC3407147, “Therapeutic Inhibition of Pro-Inflammatory Signaling and Toxicity to Staphylococcal Enterotoxin B by a Synthetic Dimeric BB-Loop Mimetic of MyD88” (PLoS ONE, 2012)
